Experimental data published in patent US20120282269A1 (Boehringer Ingelheim, published 2012).
Where “and” joins values, the source holds several entries; their conditions need not be identical. Identical values can stand only once. Like-named read-outs stand apart in the source and are kept apart here.

Tests used:
Assay in all cases: cell-based or functional assay
recombinant human IL-23 [1] = molecular target: T1, recombinant human IL-23 (human, UniProt P29460 23-328)
T1 sequence 1: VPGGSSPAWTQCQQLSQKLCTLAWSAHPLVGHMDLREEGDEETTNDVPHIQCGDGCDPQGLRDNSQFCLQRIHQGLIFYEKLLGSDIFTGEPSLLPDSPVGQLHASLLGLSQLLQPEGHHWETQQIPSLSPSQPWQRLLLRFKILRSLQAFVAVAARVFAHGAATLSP
T1 sequence 2: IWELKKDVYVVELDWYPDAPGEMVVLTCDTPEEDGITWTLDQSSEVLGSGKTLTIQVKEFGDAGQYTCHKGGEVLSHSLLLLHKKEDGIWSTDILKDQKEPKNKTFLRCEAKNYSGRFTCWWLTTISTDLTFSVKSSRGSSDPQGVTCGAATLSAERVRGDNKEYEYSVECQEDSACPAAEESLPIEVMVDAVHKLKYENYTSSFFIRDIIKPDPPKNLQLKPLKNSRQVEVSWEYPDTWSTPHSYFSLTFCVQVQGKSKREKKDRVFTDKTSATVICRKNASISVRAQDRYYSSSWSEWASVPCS

human IL-12 = molecular target: T2, human IL-12 (human, UniProt P29459 23-219; P29460 23-328)
T2 sequence (looked up) 1: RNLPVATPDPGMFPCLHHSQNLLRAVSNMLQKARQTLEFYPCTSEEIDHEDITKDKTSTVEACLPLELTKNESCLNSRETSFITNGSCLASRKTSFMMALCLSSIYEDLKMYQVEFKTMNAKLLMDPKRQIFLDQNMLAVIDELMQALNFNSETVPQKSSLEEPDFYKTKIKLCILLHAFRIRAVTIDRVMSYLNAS
T2 sequence (looked up) 2: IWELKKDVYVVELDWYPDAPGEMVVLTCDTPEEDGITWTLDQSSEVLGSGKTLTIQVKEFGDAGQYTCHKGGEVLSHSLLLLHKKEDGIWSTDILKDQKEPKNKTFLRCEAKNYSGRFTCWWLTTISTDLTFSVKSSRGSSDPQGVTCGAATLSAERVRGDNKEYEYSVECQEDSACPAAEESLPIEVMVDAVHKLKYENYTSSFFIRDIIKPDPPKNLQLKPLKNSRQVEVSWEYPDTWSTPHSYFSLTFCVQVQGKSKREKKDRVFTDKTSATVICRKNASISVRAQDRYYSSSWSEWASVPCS

[2] = molecular target: T3, natural human IL-23 from activated THP-1 cells (human, UniProt P29460 23-328)
T3 sequence 1: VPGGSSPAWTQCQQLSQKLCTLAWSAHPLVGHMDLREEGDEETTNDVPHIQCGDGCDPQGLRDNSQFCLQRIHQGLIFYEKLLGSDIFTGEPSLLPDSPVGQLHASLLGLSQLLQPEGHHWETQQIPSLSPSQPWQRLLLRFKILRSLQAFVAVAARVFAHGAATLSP
T3 sequence 2: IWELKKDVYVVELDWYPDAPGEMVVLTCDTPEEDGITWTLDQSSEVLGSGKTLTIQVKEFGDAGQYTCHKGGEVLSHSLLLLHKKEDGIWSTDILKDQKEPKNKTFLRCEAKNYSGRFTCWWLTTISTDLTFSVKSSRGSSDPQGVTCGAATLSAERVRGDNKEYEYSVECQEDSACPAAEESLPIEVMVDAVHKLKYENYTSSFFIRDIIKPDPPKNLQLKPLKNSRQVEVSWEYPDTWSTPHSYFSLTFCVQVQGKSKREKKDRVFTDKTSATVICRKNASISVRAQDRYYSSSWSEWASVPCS

recombinant human IL-23 [3] = molecular target: T1, recombinant human IL-23; remark: listed apart in the source
recombinant human IL-23 [4] = molecular target: T1, recombinant human IL-23; remark: listed apart in the source
[5] = molecular target: natural human IL-23 from activated THP-1 cells (human) (UniProt P29460)
[6] = molecular target: recombinant human IL-23 (human) (UniProt P29460)

Binder | IC50, inhibition of IL-17 production from IL-23 stimulated mouse splenocytes (recombinant human IL-23 [1]) | Average pg/ml IFN-γ +/- Standard Deviation, human PHA-derived T cell blasts with 1 ng/ml IL-12 (no antibody: 532 +/- 51; unstimulated: 87 +/- 7) (human IL-12) [pg/mL] | IC50, inhibition of IL-17 production from IL-23 stimulated mouse splenocytes [2] | IC50, inhibition of IL-17 production from IL-23 stimulated mouse splenocytes (recombinant human IL-23 [3]) | IC50, inhibition of IL-23 induced STAT3 phosphorylation in human DB cells (recombinant human IL-23 [4]) | IC50, inhibition of IL-17 production from IL-23 stimulated mouse splenocytes [5] | IC50, inhibition of IL-23 induced STAT3 phosphorylation in human DB cells [6]
Chimeric 18E5 (antibody, V domains shown) VH: EVQLQQSGPELVKPGAAVKMSCKASGYTFTRYLIHWVKQKPGQGLEWIGYINPYNDGTKYNEKFKGKATLTSDKSSSTAYMELSSLTSEDSAVYYCTSNWDLDYWGQGTTLTVSS VL: DIVMTQSPATLSVTPGDRVSLSCRASQSISDYLYWYQQKSHESPRLLIKFASQSISGIPSRFTGSGSGSDFTLSIDSVEPDDVGVFFCQNGHSFPFTFGGGTKLEIK | 0.031 nM | 511 |  |  |  |  | 
Chimeric 24A5 (antibody, V domains shown) VH: EVQLQQSGPELVKPGASVKMSCKASGYTFTTSIMHWVKQKPGQGLEWIGYINPYDDVTKYNEKFKGKATLTSDKSSSTAYMELSSLTSEDSAVYYCVRRWDEAYWGQGTLVTVSA VL: DIVMTQSPATLSVTPGNRVSLSCRASQSISDYLHWYQQKSHESPRLLIKYASQSISGIPSRFSGSGSGSNFTLSINSVEPEDVGVYYCQNGHSFPFTFGSGTKLEIK | 0.404 nM |  | 0.095 nM and 0.102 nM |  |  |  | 
Antibody 6H12 (disclosed in WO 2007/027714) (antibody, from another filing, V domains shown) VH: EVHLQQSGPELVKPGASVKMSCKASGYTFNRYLIHWVKQKPGQGLEWIGYINPNNDGTNYNEKFKGKATLTSDKSSSTAYMELSSLTSEDSAVYYCAANWDQAYWGQGTLVTVSA VL: DIVMTQSPATLSVTPGDRVSLSCRASQSISDYLHWYQQKSHESPRLLIKYTSQSISGIPSRFSGSGSGSDFTLSINSVEPEDVGVYYCQNGHSFPFTFGSGTKLEIKR |  |  |  | 1.6 nM and 0.806 nM and 1.3 nM |  |  | 
Chimeric 6B8 (antibody, IgG1, V domains shown) VH: QVQLQQSDAELVKPGTSVKTSCKISGNTFTDQTIHWMKQRPEQGLEWIGYIYPRDDSPKYNENFKGKATLTADKSSSTAYMQLNSLTSEDSAVYFCAIPDRSGYAWFIYWGQGTLVTVSS VL: DIVMTQSHKFLSTSVGDRVTITCKASRDVAIAVAWYQQKPGQSPKLLLFWASTRHTGVPDRFTGSGSRTDFTLTISNVQSEDLADYFCHQYSSYPFTFGSGTKLEIK | 0.026 nM and 0.037 nM and 0.057 nM | 523 | 0.005 nM and 0.002 nM and 0.006 nM and 0.003 nM |  |  |  | 
Antibody A (antibody, human IgG1, kappa, L234A L235A, V domains shown) VH: QVQLVQSGAEVKKPGSSVKVSCKASGYTFTDQTIHWMRQAPGQGLEWIGYIYPRDDSPKYNENFKGKVTITADKSTSTAYMELSSLRSEDTAVYYCAIPDRSGYAWFIYWGQGTLVTVSS VL: DIQMTQSPSSLSASVGDRVTITCKASRDVAIAVAWYQQKPGKVPKLLIYWASTRHTGVPSRFSGSGSRTDFTLTISSLQPEDVADYFCHQYSSYPFTFGSGTKLEIKR | 0.005 nM and 0.015 nM | 497 | 0.001 nM |  |  |  | 
Antibody D (antibody, human IgG1, kappa, L234A L235A, V domains shown) VH: QVQLVQSGAEVKKPGSSVKVSCKASGFTFTDQTIHWVRQAPGQGLEWMGYIYPRDDSPKYNENFKGKVTLTADKSTSTAYMELSSLRSEDTAVYYCAIPDRSGYAWFIYWGQGTLVTVSS VL: DIQMTQSPSSLSASVGDRVTITCKASRDVAIAVAWYQQKPGKVPKLLLFWASTRHTGVPDRFSGSGSGTDFTLTISSLQPEDLADYYCHQYSSYPFTFGQGTKLEIKR | 0.236 nM and 0.225 nM and 0.614 nM and 0.458 nM | 539 | 0.133 nM and 0.125 nM |  | 0.158 nM |  | 
Antibody B (antibody, human IgG1, kappa, L234A L235A, V domains shown) VH: QVQLVQSGAEVKKPGSSVKVSCKASGFTFTDQTIHWVRQAPGQGLEWMGYIYPRDDSPKYNENFKGKVTLTADKSTSTAYMELSSLRSEDTAVYYCAIPDRSGYAWFIYWGQGTLVTVSS VL: DIQMTQSPSSLSASVGDRVTITCKASRDVAIAVAWYQQKPGKVPKLLIYWASTRHTGVPSRFSGSGSRTDFTLTISSLQPEDVADYFCHQYSSYPFTFGSGTKLEIKR |  | 537 | 0.009 nM and 0.008 nM |  | 0.073 nM and 0.084 nM |  | 
Antibody C (antibody, human IgG1, kappa, L234A L235A, V domains shown) VH: QVQLVQSGAEVKKPGSSVKVSCKASGYTFTDQTIHWMRQAPGQGLEWIGYIYPRDDSPKYNENFKGKVTITADKSTSTAYMELSSLRSEDTAVYYCAIPDRSGYAWFIYWGQGTLVTVSS VL: DIQMTQSPSSLSASVGDRVTITCKASRDVAIAVAWYQQKPGKVPKLLLFWASTRHTGVPDRFSGSGSGTDFTLTISSLQPEDLADYYCHQYSSYPFTFGQGTKLEIKR |  | 495 | 0.016 nM and 0.032 nM |  | 0.132 nM and 0.08 nM |  | 
Antibody C1273 (disclosed in WO 2007/005955) (antibody, from another filing, V domains shown) VH: DVNLVESGGGLVKPGGSLKLSCAASGFTFSSYTMSWVRQTPEKRLEWVATISSGGTYTYYPDSVKGRFTISRDNAKNTLYLQMSSLKSEDTAMFYCTRDNHAYDRGPFFDYWGQGATLTVSS VL: DIVMSQSPSSLVVSVGEKVTMSCKSSQNLFYRSNQKNHLAWYQQKPGQSPTLLIYWTSTRESGVPDRFTGSGSGTDFTLTISRVKAEDLAVYYCQQYYSYPPTFGGGTKLEIK |  |  |  |  |  | 0.093 nM and 0.044 nM | 0.163 nM and 0.438 nM
